From publication PMC3689539 (Structure (London, England : 1993), 2009)

Biological target: the molecule itself
Assay: SEC

B1: full length unphosphorylated wild-type MEK6 (natural protein, human, UniProt P52564 1-334, looked up)
chain: MSQSKGKKRNPGLKIPKEAFEQPQTSSTPPRDLDSKACISIGNQNFEVKADDLEPIMELGRGAYGVVEKMRHVPSGQIMAVKRIRATVNSQEQKRLLMDLDISMRTVDCPFTVTFYGALFREGDVWICMELMDTSLDKFYKQVIDKGQTIPEDILGKIAVSIVKALEHLHSKLSVIHRDVKPSNVLINALGQVKMCDFGISGYLVDSVAKTIDAGCKPYMAPERINPELNQKGYSVKSDIWSLGITMIELAILRFPYDSWGTPFQQLKQVVEEPSPQLPADKFSAEFVDFTSQCLKKNSKERPTYPELMQHPFFTLHESKGTDVASFVKLILGD
stoichiometry N: 2
